For experiment [1], the target named is T1, Recombinant water-soluble HLA-DR-2 molecules (DRB1*1501) (human).
T1 chain 1: not shown
T1 chain 2: not shown
In words: ELISA, biotinylated MBP 86-100 (0.13 uM) on soluble HLA-DR-2, no competitor; background 0.1. For orientation: An ELISA detects its analyte on a solid surface through an enzyme-linked reagent.

For experiment [2], the target named is T2, Recombinant water-soluble HLA-DR-2 molecules (DRB1*1501) (human, UniProt P01903 26-216; P01911 30-227, limits assumed).
T2 construct: Expressed in Drosophila S2 cells and purified on a Protein A-LB3.1 column 'as described (Kalandadze et al. 1996)'; also called HLA DR-2 (DRB1*1501); purified HLA-DR-2
In words: competition ELISA, unlabeled inhibitor against biotinylated MBP 86-100 on soluble HLA-DR-2 (LB3.1 capture, streptavidin-AP).

No end group written: not given here.

Regarding SGSGNPVVHFFKNIVTPRT (not fully specified) [Biotinylated MBP 86-100 (SEQ ID NO: 1)], the signal at 410 nm without competitor (absorbance at 410 nm) in experiment [1] lay in the range of 0.8 to 0.9.

B1: MBP 85-99 (SEQ ID NO: 2), unlabeled (peptide)
peptide: ENPVVHFFKNIVTPR
notes: also called unlabeled MBP 85-99 peptide; synthetic unlabeled peptide control MBP 85-99
For B1, the binding result in experiment [2] is recorded as “binds”.

For the origin of these results see patent US20040038887A1 (Harvard, published 2004).
